In article PMC11101737:

B1: GRE (dsDNA)
DNA 1: CTAGGCTGTACAGGATGTTCTGCCTAG
DNA 2: CTAGGCAGAACATCCTGTACAGCCTAG
B2: AAV2 D-sequence (D) (dsDNA)
DNA 1: CTCCATCACTAGGGGTTCCT
DNA 2: AGGAACCCCTAGTGATGGAG

Target: glucocorticoid receptor (GR) (UniProt P04150 1-777)
Assay: EMSA

Sequence of glucocorticoid receptor (GR) (P04150 whole entry): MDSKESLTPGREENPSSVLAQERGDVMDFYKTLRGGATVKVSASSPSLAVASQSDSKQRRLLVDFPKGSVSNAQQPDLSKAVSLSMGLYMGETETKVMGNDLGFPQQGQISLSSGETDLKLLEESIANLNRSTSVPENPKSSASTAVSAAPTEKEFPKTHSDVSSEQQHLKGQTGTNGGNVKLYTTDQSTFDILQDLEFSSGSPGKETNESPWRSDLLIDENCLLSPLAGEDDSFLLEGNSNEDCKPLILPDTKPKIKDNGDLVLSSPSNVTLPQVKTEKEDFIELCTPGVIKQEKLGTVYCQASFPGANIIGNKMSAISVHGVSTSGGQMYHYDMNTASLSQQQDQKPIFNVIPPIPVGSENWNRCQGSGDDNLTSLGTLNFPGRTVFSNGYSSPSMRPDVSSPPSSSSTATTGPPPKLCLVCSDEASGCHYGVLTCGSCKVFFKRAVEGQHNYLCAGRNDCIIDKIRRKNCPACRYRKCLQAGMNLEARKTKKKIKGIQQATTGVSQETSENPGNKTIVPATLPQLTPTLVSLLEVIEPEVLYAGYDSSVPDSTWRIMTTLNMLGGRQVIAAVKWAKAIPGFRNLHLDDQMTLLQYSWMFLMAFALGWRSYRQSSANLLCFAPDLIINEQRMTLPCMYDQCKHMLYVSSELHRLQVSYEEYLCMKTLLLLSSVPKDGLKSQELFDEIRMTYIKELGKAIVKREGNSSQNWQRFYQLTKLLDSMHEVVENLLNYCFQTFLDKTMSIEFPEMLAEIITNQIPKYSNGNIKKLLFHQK

Binder	binding result
B1	binds
B2	binds
